{
  "source": "patent US20020012949A1",
  "about": "“Assay systems for leptin-enhancing agents” (priority 1997, published 2002)",
  "target": "T1, OB-R (Homo sapiens, UniProt P48357)",
  "T1 construct": "The cytoplasmic domain and full-length human OB-R was cloned by PCR; expressed in transfected cells; host or cells: COS-7",
  "T1 sequence (P48357 22-1165)": "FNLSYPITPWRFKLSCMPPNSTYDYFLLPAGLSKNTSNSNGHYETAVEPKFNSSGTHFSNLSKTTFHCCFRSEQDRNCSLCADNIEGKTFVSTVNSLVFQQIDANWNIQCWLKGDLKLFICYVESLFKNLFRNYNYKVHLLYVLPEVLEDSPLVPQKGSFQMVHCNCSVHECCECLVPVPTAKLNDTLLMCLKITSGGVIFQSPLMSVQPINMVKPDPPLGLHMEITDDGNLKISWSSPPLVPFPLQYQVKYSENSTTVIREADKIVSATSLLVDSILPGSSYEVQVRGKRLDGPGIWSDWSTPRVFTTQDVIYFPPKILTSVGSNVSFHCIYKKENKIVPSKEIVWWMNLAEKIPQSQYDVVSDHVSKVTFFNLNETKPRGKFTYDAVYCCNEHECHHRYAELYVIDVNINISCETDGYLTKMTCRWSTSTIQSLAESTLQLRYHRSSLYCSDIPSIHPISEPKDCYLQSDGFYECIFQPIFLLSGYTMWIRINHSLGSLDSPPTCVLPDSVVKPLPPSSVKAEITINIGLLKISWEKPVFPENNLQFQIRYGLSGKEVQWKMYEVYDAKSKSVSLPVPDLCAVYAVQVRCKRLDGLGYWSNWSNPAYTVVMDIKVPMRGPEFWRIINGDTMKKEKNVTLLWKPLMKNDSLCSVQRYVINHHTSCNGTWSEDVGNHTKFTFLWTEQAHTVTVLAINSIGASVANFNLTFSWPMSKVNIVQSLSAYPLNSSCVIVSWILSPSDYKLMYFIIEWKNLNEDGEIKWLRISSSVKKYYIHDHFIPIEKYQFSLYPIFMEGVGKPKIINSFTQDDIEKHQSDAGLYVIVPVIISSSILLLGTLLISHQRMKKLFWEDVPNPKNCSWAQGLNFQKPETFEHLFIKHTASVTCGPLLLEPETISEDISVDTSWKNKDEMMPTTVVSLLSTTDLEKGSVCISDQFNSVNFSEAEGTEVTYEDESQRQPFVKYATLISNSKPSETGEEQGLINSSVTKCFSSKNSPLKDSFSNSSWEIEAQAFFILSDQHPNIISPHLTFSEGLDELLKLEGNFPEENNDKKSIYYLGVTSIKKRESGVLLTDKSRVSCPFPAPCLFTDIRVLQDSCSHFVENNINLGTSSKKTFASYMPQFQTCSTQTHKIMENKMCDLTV",
  "test": "Luciferase reporter gene assay (3(G3)-Cy6-LUC), leptin stimulation of COS cells expressing wild type OB-R",
  "format": "cell-based",
  "settings": "100 ng/ml leptin for 24 hours, stimulated vs non-stimulated",
  "protocol": "The cytoplasmic domain and full-length human OB-R was cloned by PCR using human fetal liver and adipocyte cDNA (Clontech) and cloned into the expression vectors pCMX and pMT21. Chimeric receptors were constructed by fusing the extracellular domain and transmembrane domain of TrkC (amino acids 1 to 458) to the cytoplasmic domain of OB-R (amino acids 865-1165). A triple myc epitope tag was added at the C-terminus of all OB-R constructs (18). Truncation and point mutant constructs were generated by PCR and the sequences of all constructs were verified. Expression constructs were transfected into COS-7 cells using lipofectamine (GIBCO-BRL); 36-48 hours after transfection, cells were starved for either 2 hour,s for chimeric receptors or overnight for full-length receptors prior to stimulation.\nExpression constructs (1 μg) for OB-R, OB-RY1141F, OB-RY986F, OB-RY1078, 1079F, and OB-RY986, 1141F were co-transfected with 1 μg of 3(G3)-Cy6-LUC and 0.1 μg of pCMX.LacZ into COS-7 cells (6-well dishes) using lipofectamine. The day after transfection, media was changed to serum-free OptiMEM (GIBCO-BRL) and then treated with 100 ng/ml murine leptin (PeproTech) or human leptin (R&D Systems) for 24 hours. […] Luciferase and β-galactosidase activities were measured in cell lysates (30) and luciferase activity was normalized to β-galactosidase activity to control for transfection differences. […]",
  "data": [
    {"substance": "leptin: the product of the obese gene, secreted by adipocytes; ligand of OB-R", "values": [
      {"measurement": "induction of luciferase activity", "result": 6, "unit": "fold"}
    ]}
  ]
}
